Assay results reported in paper PMC5780041, “Endosomal Rab cycles regulate Parkin-mediated mitophagy” (eLife, 2018).

Tests used:
[1] = molecular target: T1, S65 phosphorylated ubiquitin produced in bacterial cells (human, UniProt P0CG48 1-76, S65 phosphorylated); assay: ITC; 18 injections of 2 μl of 300 μM ubiquitin or phosphorylated ubiquitin into 200 μl of 30 μM GST-mRABGEF1 in the cell; 25°C; TBS buffer; single site binding model; conditions: both partners purified
T1 construct: human ubiquitin, the 76-residue mature product, from pET21a(+)/1xUb; Same construct as m13, phosphorylated in the bacteria by co-expressed membrane-anchored TcPINK1; also called monomeric phosphorylated ubiquitin; source: Superdex 75)

[2] = molecular target: T2, 1x human ubiquitin (C-terminal His-tagged) (human, UniProt P0CG48 1-76); assay: as above; conditions: both partners purified
T2 construct: human ubiquitin, the 76-residue mature product (primers from the ATG to the codons of the last two glycines); In pET21a(+) between BamHI and XhoI; also called 1x ubiquitin; 1 × Ub; source: E. coli BL21-CodonPlus(DE3)-RIL, purified (Ni-NTA; for ITC also Superdex 75)

B1: GST-tagged mouse RABGEF1 (WT) 1-74aa (domain or fragment)
chain: not shown
notes: Expressed with 50 μM ZnCl2 in the medium; also called GST-mRABGEF1 (WT); GST-mRABGEF1 WT; source: E. coli BL21-CodonPlus(DE3)-RIL, purified (glutathione-Sepharose 4B; for ITC also Superdex 75); not shown: GST, N-terminal, kept
[1]
  Kd: 5.6 µM
[2]
  Kd: 2.2 µM
